Test results: patent US20060034863A1 (CHEMOCENTRYX, published 2006)

T1: human chemokine receptor CCR1 (human, UniProt P32246 1-355)
T1 construct: whole, on cells; also called HEK293-CCR1 transfectants
T1 sequence (looked up): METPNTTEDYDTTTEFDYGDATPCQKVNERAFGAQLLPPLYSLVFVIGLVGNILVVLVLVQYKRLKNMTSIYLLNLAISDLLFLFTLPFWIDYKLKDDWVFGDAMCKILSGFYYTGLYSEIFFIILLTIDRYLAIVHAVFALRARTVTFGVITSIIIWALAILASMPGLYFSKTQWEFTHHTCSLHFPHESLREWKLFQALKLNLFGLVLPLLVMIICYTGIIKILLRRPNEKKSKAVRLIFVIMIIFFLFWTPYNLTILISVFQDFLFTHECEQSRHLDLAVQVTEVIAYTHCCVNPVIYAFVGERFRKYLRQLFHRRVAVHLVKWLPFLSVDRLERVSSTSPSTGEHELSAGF

T2: formyl peptide receptor like 1 (FPRL1) (human, UniProt P25090 1-351)
T2 construct: whole, on cells; also called FPRL1-L1.2 transfectants; L1.2 FPRL1 Cells
T2 sequence (looked up): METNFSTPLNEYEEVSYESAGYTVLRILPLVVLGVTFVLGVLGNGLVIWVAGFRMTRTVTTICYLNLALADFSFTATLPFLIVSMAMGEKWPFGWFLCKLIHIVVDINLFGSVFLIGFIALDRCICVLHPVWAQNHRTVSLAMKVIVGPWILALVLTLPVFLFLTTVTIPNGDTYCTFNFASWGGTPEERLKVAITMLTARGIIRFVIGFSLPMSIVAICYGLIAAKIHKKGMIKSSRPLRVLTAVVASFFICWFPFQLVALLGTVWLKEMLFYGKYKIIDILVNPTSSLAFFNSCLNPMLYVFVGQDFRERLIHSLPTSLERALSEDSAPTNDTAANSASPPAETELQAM

B1: MIP-1α (ligand, human, UniProt P10147 27-92, looked up)
chain: ADTPTACCFSYTSRQIPQNFIADYFETSSQCSKPGVIFLTKRSRQVCADPSEEWVQKYVSDLELSA
notes: also called macrophage inflammatory protein
B2: CKβ8-1(1-116) (ligand)
chain: RVTKDAETEFMMSKLPLENPVLLDMLWRRKIGPQMTLSHAAGFHATSADCCISYTPRSIPCSLLESYFETNSECSKPGVIFLTKKGRRFCANPSDKQVQVCMRMLKLDTRIKTRKN
notes: Human recombinant chemokine bought from R&D Systems; also called CCL23 variant
B3: CKβ8(25-99) (ligand)
chain: RFHATSADCCISYTPRSIPCSLLESYFETNSECSKPGVIFLTKKGRRFCANPSDKQVQVCMRMLKLDTRIKTRKN
notes: Human recombinant chemokine bought from R&D Systems; also called CCL23 variant; CKβ (25-99)
B4: CKβ8(1-99) (ligand)
chain: RVTKDAETEFMMSKLPLENPVLLDRFHATSADCCISYTPRSIPCSLLESYFETNSECSKPGVIFLTKKGRRFCANPSDKQVQVCMRMLKLDTRIKTRKN
notes: Human recombinant chemokine bought from R&D Systems; also called CCL23 variant; CKβ (1-99)
B5: SHAAGtide truncated variant CCXP2 (SEQ ID NO: 2) (peptide)
peptide: RRKIGPQMTLSHAAG
B6: SHAAGtide truncated variant CCXP8 (SEQ ID NO: 8) (peptide)
peptide: MLWRRKIGPQM
B7: SHAAGtide (SEQ ID NO: 1) (peptide)
peptide: MLWRRKIGPQMTLSHAAG
B8: SHAAYtide (SEQ ID NO: 6) (peptide)
peptide: MLWRRKIGPQMTLSHAAY
B9: SHAAGtide truncated variant CCXP5 (SEQ ID NO: 5) (peptide)
peptide: MLWRRKIGPQMT
B10: SHAAGtide truncated variant CCXP3 (SEQ ID NO: 3) (peptide)
peptide: MLWRRKIGPQMTLSH
B11: CKβ8-1(25-116) (ligand)
chain: MLWRRKIGPQMTLSHAAGFHATSADCCISYTPRSIPCSLLESYFETNSECSKPGVIFLTKKGRRFCANPSDKQVQVCMRMLKLDTRIKTRKN
notes: Human recombinant chemokine bought from R&D Systems; NH2-terminal truncated form of CKβ8-1; also called CCL23 variant

How the values were obtained:
[1] = target: T1, human chemokine receptor CCR1; experiment: displacement of 125I-MIP-1α from HEK293-CCR1 cells, filter binding, 3 h at 4°C
Protocol: (§1) The binding characteristics of CCL23 variants was compared in human CCR1 expressing cells. […] Reactions mixtures were aspirated onto PEI-treated GF/B glass filters using a cell harvester (Packard). The filters were washed twice (25 mM HEPES, 500 mM NaCl, 1 mM CaCl₂, 5 mM MgCl₂, adjusted to pH 7.1). Scintillant (MicroScint-10; 35 μl) was added to dried filters and the filiters counted in a Packard Topcount scintillation counter. Data were analyzed and plotted using Prism software (GraphPad Software, San Diego, Calif.).

[2] = target: MIP-1α binding sites on human monocytes (human); experiment: displacement of 125I-MIP-1α from human monocytes, filter binding
[3] = target: T2, formyl peptide receptor like 1 (FPRL1); experiment: 125I-WKYMVm displacement on FPRL1-L1.2 transfectants and human monocytes
Description: (§2) The IC50 for each interaction was derived from non-linear least squares curve fitting of the data by using Prism software (GraphPad Software).

[4] = target: T1, human chemokine receptor CCR1; experiment: displacement of 125I-MIP-1α from HEK293-CCR1 cells
Protocol: as §1

[5] = target: T2, formyl peptide receptor like 1 (FPRL1); experiment: cell-based or functional assay
[6] = target: T2, formyl peptide receptor like 1 (FPRL1); experiment: displacement of 0.01 nM 125I-WKYMVm from human monocytes, 3 h at 4°C
Description: as §2

[7] = target: MIP-1α binding sites on human monocytes (human); experiment: 125I-MIP-1α competition binding on human monocytes against HEK293-CCR1 cells
[8] = target: T2, formyl peptide receptor like 1 (FPRL1); experiment: cell-based or functional assay; remark: listed apart in the source
[9] = target: T2, formyl peptide receptor like 1 (FPRL1); experiment: displacement of 0.01 nM 125I-WKYMVm from L1.2 FPRL1 cells, 3 h at 4°C
Description: as §2

Binder | IC50 [1] [nM] | IC50 [2] [nM] | Induction of Calcium Flux in FPRL1 L1.2 Cells (IC 50) [5] [nM] | further results
B1 | 0.54 | 0.27 | – | –
B2 | 206 | 55 | – | binding result [3]: no binding
B3 | 1.34 | 0.25 | – | binding result [3]: no binding; fold IC50 change against CKβ8(1-99) [4]: 40 fold
B4 | 64 | 10.3 | – | binding result [3]: no binding
B5 | – | – | > 50000 | –
B6 | – | – | 45 | –
B7 | – | – | 150 | –
B8 | – | – | 38 | –
B9 | – | – | 7.4 | –
B10 | – | – | 68 | –
B11 | 112 | 5.1 | 11 | IC50 [6]: 31 nM; fold higher MIP-1α displacement activity on monocytes than on HEK293-CCR1 cells [7]: > 10 fold; fold IC50 change against CKβ8-1(1-116) [4]: 1 fold; EC50 of calcium flux dose response in FPRL1-L1.2 transfectants [8]: 10 to 20 nM; IC50 [9]: 196 nM
